# According to US20110129854A1:
# Legend:
# [1] = molecular target: Cardiac troponin-T (human) (UniProt P45379); assay: sandwich chemiluminescent immunoassay (…); detection 7G7 conjugate, capture 7F4 microparticles; cTnT 2 ug/mL
# [2] = molecular target: Cardiac troponin-T (human) (UniProt P45379); assay: sandwich chemiluminescent immunoassay (…); detection 7G7 conjugate, capture 1C11 microparticles; cTnT 0 ug/mL (blank)
# [3] = molecular target: Cardiac troponin-T (human) (UniProt P45379); assay: sandwich chemiluminescent immunoassay (…); detection 7G7 conjugate, capture 7F4 microparticles; cTnT 1 ug/mL
# [4] = molecular target: Cardiac troponin-T (human) (UniProt P45379); assay: sandwich chemiluminescent immunoassay (…); detection 7G7 conjugate, capture M8020207 microparticles; cTnT 1 ug/mL
# [5] = molecular target: Cardiac troponin-T (human) (UniProt P45379); assay: sandwich chemiluminescent immunoassay (…); detection 7G7 conjugate, capture 7F4 microparticles; cTnT 0.25 ug/mL
# [6] = molecular target: Cardiac troponin-T (human) (UniProt P45379); assay: sandwich chemiluminescent immunoassay (…); detection 7G7 conjugate, capture M8020207 microparticles; cTnT 0.5 ug/mL
# [7] = molecular target: human cardiac troponin-I-T-C complex (human) (UniProt P63316); assay: sandwich chemiluminescent immunoassay (…); detection 7G7 conjugate 30 ng/mL, capture M8020207 microparticles; cTnITC standard, 42 pM cTnT
# [8] = molecular target: Cardiac troponin-T (human) (UniProt P45379); assay: sandwich chemiluminescent immunoassay (…); detection 7G7 conjugate, capture M8020207 microparticles; cTnT 2 ug/mL
# [9] = molecular target: human cardiac troponin-I-T-C complex (human) (UniProt P63316); assay: sandwich chemiluminescent immunoassay (…); detection 7G7 conjugate, capture M8020207 microparticles; negative human plasma without spiked cTnITC (blank)
# [10] = molecular target: Cardiac troponin-T (human) (UniProt P45379); assay: sandwich chemiluminescent immunoassay (…); detection 7G7 conjugate, capture M8020207 microparticles; cTnT 0 ug/mL (blank)
# [11] = molecular target: human cardiac troponin-I-T-C complex (human) (UniProt P63316); assay: sandwich chemiluminescent immunoassay (…); detection 7G7 conjugate, capture M8020207 microparticles; human plasma spiked with cTnITC, nominal 42 pM cTnT as labelled in the table
# [12] = molecular target: human cardiac troponin-I-T-C complex (human) (UniProt P63316); assay: sandwich chemiluminescent immunoassay (…); detection 7G7 conjugate 30 ng/mL, capture M8020207 microparticles; cTnITC standard, 279 pM cTnT
# [13] = molecular target: Cardiac troponin-T (human) (UniProt P45379); assay: sandwich chemiluminescent immunoassay (…); detection 7G7 conjugate, capture 7F4 microparticles; cTnT 0 ug/mL (blank)
# [14] = molecular target: human cardiac troponin-I-T-C complex (human) (UniProt P63316); assay: sandwich chemiluminescent immunoassay (…); detection 7G7 conjugate, capture M8020207 microparticles; human plasma spiked with cTnITC, nominal 7 pM cTnT
# [15] = molecular target: Cardiac troponin-T (human) (UniProt P45379); assay: sandwich chemiluminescent immunoassay (…); detection 7G7 conjugate, capture 7F4 microparticles; cTnT 0.5 ug/mL
# [16] = molecular target: human cardiac troponin-I-T-C complex (human) (UniProt P63316); assay: sandwich chemiluminescent immunoassay (…); detection 7G7 conjugate 30 ng/mL, capture M8020207 microparticles; cTnITC standard, 14 pM cTnT
# [17] = molecular target: Cardiac troponin-T (human) (UniProt P45379); assay: sandwich chemiluminescent immunoassay (…); detection 7G7 conjugate, capture 1C11 microparticles; cTnT 0.25 ug/mL
# [18] = molecular target: Cardiac troponin-T (human) (UniProt P45379); assay: sandwich chemiluminescent immunoassay (…); detection 7G7 conjugate, capture M8020207 microparticles; cTnT 0.25 ug/mL
# [19] = molecular target: human cardiac troponin-I-T-C complex (human) (UniProt P63316); assay: sandwich chemiluminescent immunoassay (…); detection 7G7 conjugate 30 ng/mL, capture M8020207 microparticles; cTnITC standard, 0 pM cTnT (blank)
# [20] = molecular target: Cardiac troponin-T (human) (UniProt P45379); assay: sandwich chemiluminescent immunoassay (…); detection 7G7 conjugate, capture 1C11 microparticles; cTnT 2 ug/mL
# [21] = molecular target: human cardiac troponin-I-T-C complex (human) (UniProt P63316); assay: sandwich chemiluminescent immunoassay (…); detection 7G7 conjugate 30 ng/mL, capture M8020207 microparticles; cTnITC standard, 7 pM cTnT
# [22] = molecular target: Cardiac troponin-T (human) (UniProt P45379); assay: sandwich chemiluminescent immunoassay (…); detection 7G7 conjugate, capture 1C11 microparticles; cTnT 1 ug/mL
# [23] = molecular target: Cardiac troponin-T (human) (UniProt P45379); assay: sandwich chemiluminescent immunoassay (…); detection 7G7 conjugate, capture 1C11 microparticles; cTnT 0.5 ug/mL
substance,measurement,setting,value
Murine anti-cardiac troponin-T 7G7 acridinium-9-carboxamide conjugate (antibody),RLU,[1],46800 RLU
same,RLU,[2],317 RLU
same,RLU,[3],29900 RLU
same,RLU,[4],251000 RLU
same,RLU,[5],9080 RLU
same,RLU,[6],164000 RLU
same,RLU,[7],81500 RLU
same,RLU,[8],305000 RLU
same,RLU,[9],2070 RLU
same,RLU,[10],338 RLU
same,RLU,[11],74100 RLU
same,RLU,[12],423000 RLU
same,RLU,[13],333 RLU
same,RLU,[14],13800 RLU
same,RLU,[15],17200 RLU
same,RLU,[16],28100 RLU
same,RLU,[17],79400 RLU
same,RLU,[18],96200 RLU
same,RLU,[19],2370 RLU
same,RLU,[20],311000 RLU
same,RLU,[21],15300 RLU
same,RLU,[22],238000 RLU
same,RLU,[23],149000 RLU
